Test results as given in patent publication US9616101B2, “Differentiation marker and differentiation control of eye cell” (Kyoto Prefectural Public University Corporation, priority 2012, dated 2017).

Tested on: corneal endothelial cell of rabbit sclerocorneal section
Experiment: Organ culture of rabbit sclerocorneal section with R-spondin 1: Ki67-positive cell rate
Format: cell-based, white rabbit
Details: control about 1.0%
Procedure: Eyeballs of white rabbit (Nacalai) euthanized for another object were purchased, and a sclerocorneal section was prepared. The sclerocorneal section was cultured in an incubator at 37° C. for 1 week in DMEM (INVITROGEN, catalog No.: 12320) and 10% fetal bovine serum (FBS) (BIOWEST, catalog No.: 51820-500). […] A corneal endothelial cell was subjected to nuclear staining with DAPI, and the Ki67-positive cell rate was calculated. In addition, a corneal endothelial cell was immunostained with ZO-1, and the cell density was calculated.

B1: R-spondin 1: Recombinant Human R-spondin 1 (R&D Cat. 4645-RS); ligand of GPR49/LGR5 (protein, listed as Homo sapiens)
chain: MRLGLCVVALVLSWTHLTISSRGIKGKRQRRISAEGSQACAKGCELCSEVNGCLKCSPKLFILLERNDIRQVGVCLPSCPPGYFDARNPDMNKCIKCKIEHCEACFSHNFCTKCKEGLYLHKGRCYPACPEGSSAANGTMECSSPAQCEMSEWSPWGPCSKKQQLCGFRRGSEERTRRVLHAPVGDHAACSDTKETRRCTVRRVPCPEGQKRRKGGQGRRENANRNLARKESKEAGAGSRRRKGQQQQQQQGTVGPLTSAGPA
rate of a Ki67-positive cell (1 ng/ml R-spondin 1, 1 week): 4.49% | rate of a Ki67-positive cell (10 ng/ml R-spondin 1, 1 week): 10.58% | rate of a Ki67-positive cell (100 ng/ml R-spondin 1, 1 week): 7.94%
